We go through 13 molecules from patent US6512097.

Test [1] has as its target T1, c-erbB-2 expressed on cells (SK-OV-3, SK-BR-3) (UniProt P04626 23-1255, limits assumed).
T1 construct: whole, on cells; also called native c-erbB-2 expressed on cells; c-erbB-2 on SK-OV-3 cells
The test can be described thus: Scatchard after radioiodination, SK-OV cells. How it is done: (§1) All assays were performed in triplicate. Briefly, […] of radioiodinated sFv was added to 5×10^6 SK-OV cells in the presence of increasing concentrations of unlabeled sFv from the same preparation. After a 30 minute incubation at 20° C., the samples were washed with PBS at 4° C. and centrifuged at 500 g. The amount of labeled sFv bound to the cells was determined by counting the pellets in a gamma counter and the K_a, and K_d were calculated using the EBDA program (V 2.0, G. A. McPherson, 1983). The K_d of all the other isolated sFv were determined using surface plasmon resonance in a BIAcore (Pharmacia). In a BIAcore flow cell, approximately 1400 resonance units (RU) of c-erbB-2 ECD (25 μg/ml in 10 mM sodium acetate, pH 4.5) was coupled to a CM5 sensor chip (Johnsson et al. (1991), supra). Association and dissociation-rates were measured under continuous flow of […] using a concentration range from 50 to 800 nM. Rate constant $kon$ was determined from a plot of (1(dR/dt))/t vs concentration (Karlsson et al. (1991), supra). Rate constant $Hoff$ was determined from the dissociation part of the sensorgram at the highest concentration of sFv analyzed.
(§2) These clones were purified by IMAC after subcloning into PUC119SFI/NotmycHis, and the affinity determined by Scatchard analysis.

For test [2], the target named is T2, c-erbB-2 ECD with a Ser-Gly-His6 C-terminal fusion (UniProt P04626 23-652).
T2 construct: extracellular domain; Expressed from CHO cells, IMAC purified; coupled to a CM5 chip, coated on plates, or biotinylated with NHS-LC-biotin; also called c-erbB-2 extracellular domain; biotinylated c-erbB-2 ECD
Description: competition ELISA, sFv preincubated with soluble c-erbB-2 (0 to 100 nM). The protocol:
Meth. 77: 305–319). Immunolon 4 ELISA plates (Dynatech) were coated with avidin in PBS (10 μg/ml) at 4° C. overnight. Biotinylated c-erbB-2 ECD (5 μg/ml) was added to the wells and incubated for 30 min at room temperature. Bacterial supernatant containing sFv was incubated with varying concentrations of c-erbB-2 (0 to 100 nM) at 4° C. for 1 h. The amount of free sFv was then determined by transferring 100 μl of each mixture into the wells of the previously prepared ELISA plate and incubating for 1 h at 4° C. Binding of sFv was detected as under ELISA screening and the IC50 calculated as described (Friguet et al. (1985), supra)
as §2

Test [3] deals with T2, c-erbB-2 ECD with a Ser-Gly-His6 …. The test can be described thus: SPR BIAcore.
The target is the same in test [4]. Description: SPR BIAcore. The source holds these as a separate data set.
Test [5] has the same target. The test can be described thus: SPR BIAcore. The source holds these as a separate data set.
For test [6] the target is unchanged. Description: SPR BIAcore. How it is done:
as §1
Dashes indicate sequence identity. Mutations arising from PCR error and located outside V_H CDR3 are listed under the heading other mutations. F = frequency of isolated scFv. *$koff$ determined from unpurified scFv samples. Underline indicates mutated residue.
This is another data set of the same source.

The target is the same in test [7]. The test can be described thus: SPR BIAcore. The protocol: as §1
The source holds these as a separate data set.

Like-named read-outs stand apart in the source and are kept apart here.

B1: C6VLE (scFv)
scFv: QVQLLQSGAELKKPGESLKISCKGSGYSFTSYWIAWVRQMPGKGLEYMGLIYPGDSDTKYSPSFQGQVTISVDKSVSTAYLQWSSLKPSDSAVYFCARHDVGYCSSSNCAKWPEYFQHWGQGTLVTVSSGGGGSGGGGSGGGGSQSVLTQPPSVSAAAGQKVTISCSGSSSSIGRNYVSWNQQLPGTAPKLLIWRNNQRPSGVPDRFSGSKSGTSASLAISGVRSEDEADYYCASWDNSLSGWVFGGGTKLTVLG
modifications: Radioiodinated for the Scatchard assay; the label is not carried in the letters.
notes: Light chain shuffled; mixture of monomer and dimer by gel filtration
Take B1: the Kd in test [1] was determined as 71 nM. Also, in test [2], the IC50 was 2.8 nM.

B2: C6ML3-9 (scFv)
scFv: QVQLLQSGAELKKPGESLKISCKGSGYSFTSYWIAWVRQMPGKGLEYMGLIYPGDSDTKYSPSFQGQVTISVDKSVSTAYLQWSSLKPSDSAVYFCARHDVGYCSSSNCAKWPEYFQHWGQGTLVTVSSGGGGSGGGGSGGGGSQSVLTQPPSVSAAPGQKVTISCSGSSSNIGNNYVSWYQQLPGTAPKLLIYGHTNRPAGVPDRFSGSKSGTSASLAISGFRSEDEADYYCASWDYTLSGWVFGGGTKLTVLG
notes: template (wt) of the VH CDR3 libraries; also called C6ML3-9 (wt); C6ML-9
As to B2, the Kd in test [3], in test [5] and in test [6] was 1 nM in each case. Besides, the values for the off-rate (koff) in test [3], in test [5] and in test [6] were 0.00019 s⁻¹, 0.00092 s⁻¹ and 0.00076 s⁻¹, respectively. The “t1/2 calculated from koff” value in test [4] is 0.217 h.

B3: C6MH3-B1 (scFv)
scFv: QVQLLQSGAELKKPGESLKISCKGSGYSFTSYWIAWVRQMPGKGLEYMGLIYPGDSDTKYSPSFQGQVTISVDKSVSTAYLQWSSLKPSDSAVYFCARHDVGYCTDRTCAKWPEYFQHWGQGTLVTVSSGGGGSGGGGSGGGGSQSVLTQPPSVSAAPGQKVTISCSGSSSNIGNNYVSWYQQLPGTAPKLLIYGHTNRPAGVPDRFSGSKSGTSASLAISGFRSEDEADYYCASWDYTLSGWVFGGGTKLTVLG
notes: C6ML3-9 sFv, VH CDR3 library B mutant; also called CH3-B1
Consider B3, for which, in test [4], binding was characterised by a dissociation constant (Kd) of 0.12 nM, the koff came to 6e-05 s⁻¹ and the “t1/2 calculated from koff” value was 2.25 h. In test [6], this molecule showed a Kd of 0.16 nM and a koff of 6.7e-05 s⁻¹.

B4: C6MH3-D2 (scFv)
scFv: QVQLLQSGAELKKPGESLKISCKGSGYSFTSYWIAWVRQMPGKGLEYMGLIYPGDSDTKYSPSFQGQVTISVDKSVSTAYLQWSSLKPSDSAVYFCARHDVGYCSSSNCAKWPEWLGVWGQGTLVTVSSGGGGSGGGGSGGGGSQSVLTQPPSVSAAPGQKVTISCSGSSSNIGNNYVSWYQQLPGTAPKLLIYGHTNRPAGVPDRFSGSKSGTSASLAISGFRSEDEADYYCASWDYTLSGWVFGGGTKLTVLG
notes: C6ML3-9 sFv, VH CDR3 library D mutant
For B4, in test [4], the “fold change of Kd against wt C6ML3-9” value came to 7 fold. In test [6], this molecule yielded a dissociation constant (Kd) of 0.16 nM and a koff of 0.0002 s⁻¹.

B5: C6MH3-B47 (scFv)
scFv: QVQLLQSGAELKKPGESLKISCKGSGYSFTSYWIAWVRQMPGKGLEYMGLIYPGDSDTKYSPSFQGQVTISVDKSVSTAYLQWSSLKPSDSAVYFCARHDVGYCTDRSCAKWPEYFQHWGQGTLVTVSSGGGGSGGGGSGGGGSQSVLTQPPSVSAAPGQKVTISCSGSSSNIGNNYVSWYQQLPGTAPKLLIYGHTNRPAGVPDRFSGSKSGTSASLAISGFRSEDEADYYCASWDYTLSGWVFGGGTKLTVLG
notes: C6ML3-9 sFv, VH CDR3 library B mutant
As to B5, in test [4], the “fold lower Kd than C6ML3-9” value amounted to 9 fold, the “fold lower Kd than C6.5” value turned out to be 145 fold, the “fold lower koff than C6ML3-9” value was determined as 10 fold and the “fold lower koff than C6.5” value came out at 84 fold. In test [6], this molecule gave a Kd of 0.11 nM and a koff of 7.5e-05 s⁻¹.

B6: C6MH3-C4 (scFv)
scFv: QVQLLQSGAELKKPGESLKISCKGSGYSFTSYWIAWVRQMPGKGLEYMGLIYPGDSDTKYSPSFQGQVTISVDKSVSTAYLQWSSLKPSDSAVYFCARHDVGYCSSSNCAVWPEYFQHWGQGTLVTVSSGGGGSGGGGSGGGGSQSVLTQPPSVSAAPGQKVTISCSGSSSNIGNNYVSWYQQLPGTAPKLLIYGHTNRPAGVPDRFSGSKSGTSASLAISGFRSEDEADYYCASWDYTLSGWVFGGGTKLTVLG
notes: C6ML3-9 sFv, VH CDR3 library C mutant; also called mutant sFv K100gV
Consider B6, for which, in test [4], the “fold lower Kd than wt” value was 2.7 fold and the “fold lower koff than C6ML3-9” value is 3.8 fold. In test [6], this molecule displayed a Kd of 0.37 nM and a koff of 0.0002 s⁻¹.

B7: C6VLF (scFv)
scFv: QVQLLQSGAELKKPGESLKISCKGSGYSFTSYWIAWVRQMPGKGLEYMGLIYPGDSDTKYSPSFQGQVTISVDKSVSTAYLQWSSLKPSDSAVYFCARHDVGYCSSSNCAKWPEYFQHWGQGTLVTVSSGGGGSGGGGSGGGGSQSVLTQPPSMSAAPGQKVTISCSGSSSNIGNNYVSWYQQFPGTAPKLLIHDNNKRPSGIPDRISGSKSGTSASLAISGLQSDDEADYYCAAWDDSLNGWVFGGGTKLTVLG
modifications: Radioiodinated for the Scatchard assay; the label is not carried in the letters.
notes: as for B1
Regarding B7, the Kd in test [1] was 79 nM. This molecule also gave a half-maximal inhibitory concentration (IC50) in test [2] of 7.5 nM.

B8: C6VLB (scFv)
scFv: QVQLLQSGAELKKPGESLKISCKGSGYSFTSYWIAWVRQMPGKGLEYMGLIYPGDSDTKYSPSFQGQVTISVDKSVSTAYLQWSSLKPSDSAVYFCARHDVGYCSSSNCAKWPEYFQHWGQGTLVTVSSGGGGSGGGGSGGGGSQSVLTQPPSVSAAPGQKVTISCSGSSSNIGNNYVSWYQQLPGTAPKLLIYSDNQRPSGVPDRFSGSKSGTSASLAISGLRSEDEADYYCAAWDDSLSGHWVFGGGTKLTVLG
notes: as for B1
With B8, in test [1], the Kd amounted to 30 nM. This molecule also registered an IC50 in test [2] of 10 nM.

B9: C6H1 (scFv)
chain: QVQLVESGAEVKKPRESLKISCKGSGYSFTSYEIAWVRQMPGKGLEYMGLIYPGDSDTKYSPSFQGQVTISVDKSVSTAYLQWSSLKPSDTAMYYCARHDVGYCSSSNCAKWPEYFQHWGQGTLVTVSSGGGGSGGGGSGGGGSQSVLTQPPSVSAAPGQKVTISCSGSSSNIGNNYVSWYQQLPGTAPKLLIYGHTNRPAGVPDRFSGSKSGTSASLAISGFRSEDEADYYCAAWDDSLSGWVFGGGTKLTVLG
Take B9: in test [7], the Kd turned out to be 5.9 nM. In addition, in test [4], the “fold higher affinity than C6.5” value is 3 fold.

B10: C6H1L1 (scFv)
chain: QVQLVESGAEVKKPRESLKISCKGSGYSFTSYEIAWVRQMPGKGLEYMGLIYPGDSDTKYSPSFQGQVTISVDKSVSTAYLQWSSLKPSDTAMYYCARHDVGYCSSSNCAKWPEYFQHWGQGTLVTVSSGGGGSGGGGSGGGGSQSVLTQPPSVSGAPGQWVTISCSGSSSNIGNNYVSWYQQLPGTAPKLLIYDNNKRPSGVPDRFSGSQSGTSASLAISGLRSEDEADYYCAAWDDSLSGWVFGGGTKLTVLG
Consider B10, for which the Kd in test [7] was 15 nM. This counts as double-digit nanomolar.

B11: C6H2 (scFv)
scFv: QVQLVQSGAEVKKPRESLKISCKGSGYSFTSYWIAWVRQMPGKGLEYMGLIYPADSKTIYSPSFQGQVTISVDKSVSTAYLQWSSLKTSDTAMYYCARHDVGYCSSSNCAKWPEYFQHWGQGTLVTVSSGGGGSGGGGSGGGGSQSVLTQPPSVSAAPGQKVTISCSGSSSNIGNNYVSWYQQLPGTAPKLLIYGHTNRPAGVPDRFSGSKSGTSASLAISGFRSEDEADYYCAAWDDSLSGWVFGGGTKLTVLG
notes: Heavy chain shuffled
In turn, B11 gave a Kd in test [7] of 3.1 nM. Besides, the “fold higher affinity than C6.5” value in test [4] came out at 5 fold.

B12: C6VLD (scFv)
scFv: QVQLLQSGAELKKPGESLKISCKGSGYSFTSYWIAWVRQMPGKGLEYMGLIYPGDSDTKYSPSFQGQVTISVDKSVSTAYLQWSSLKPSDSAVYFCARHDVGYCSSSNCAKWPEYFQHWGQGTLVTVSSGGGGSGGGGSGGGGSQSVLTQPPSVSAAPGQKVTISCSGTNSNIGNNYVSWYQQLPGTAPKLLIYTNDQRPSGVPDRFSGSKSGTSASLAISGLQSEDEADYYCAAWDDSLNGWMFGGGTKLTVLG
modifications: Radioiodinated for the Scatchard assay; the label is not carried in the letters.
notes: as for B1
In test [1], B12 came in with a Kd of 26 nM. The IC50 in test [2] came to 5.8 nM.

B13: C6H2L1 (scFv)
scFv: QVQLVQSGAEVKKPRESLKISCKGSGYSFTSYWIAWVRQMPGKGLEYMGLIYPADSKTIYSPSFQGQVTISVDKSVSTAYLQWSSLKTSDTAMYYCARHDVGYCSSSNCAKWPEYFQHWGQGTLVTVSSGGGGSGGGGSGGGGSQSVLTQPPSVSGAPGQWVTISCSGSSSNIGNNYVSWYQQLPGTAPKLLIYDNNKRPSGVPDRFSGSQSGTSASLAISGLRSEDEADYYCAAWDDSLSGWVFGGGTKLTVLG
Molecule B13 showed a Kd in test [7] of 6 nM.
